For two substances, Km and kcat results are on record in paper PMC5095700.

For this data set, the system named is N[C@@H]1[C@@H](O)[C@H](O)[C@@H](CO)O[C@H]1O. The data set is described as follows: steady-state kinetics of purified variant. The following applies: acetyl CoA. The data set is classed as biochemical, Clostridium acetobutylicum.

Take “Glucosamine/glucosaminide N-acetyltransferase (GlmA) (Clostridium acetobutylicum ATCC 824; D287N)”: the Km was found to be 11.8 ± 0.5 mM and the kcat was 1.05 ± 0.03 s⁻¹.

For “Glucosamine/glucosaminide N-acetyltransferase (GlmA) (Clostridium acetobutylicum ATCC 824; Y297F)”, the Km worked out at 7.1 ± 0.5 mM and the catalytic constant (kcat) was found to be 1.3 ± 0.06 s⁻¹.

The Km is the substrate concentration at which the rate is half of its maximum. A word on the kcat: it is the maximal rate divided by the concentration of active sites.
